Experimental data reported in the DeepSol protein solubility set.

experiment: soluble on expression in E. coli; label from the status in PepcDB or PDB records

| Sequence | soluble on expression in E. coli |
| --- | --- |
| MVQEIIVDSGDIEFLTTPKEYKQQLLSLIECARQRIFITALYLQDDEAGREILHALYQAKANFPTIEINIFVDFNRGQRGLIGEKASLGNRALYLKLAHEYPHTVNIYGVAVKRKEVFGVLHLKGMVFDEKLFYTGASINDIYLHQGERYRLDRYCTINSAALADSFCHYLSDTFIDSGLAPLLNQEWLPDAVEQKKNLIALKLQLKKSHYIVAQQQGLSQSKIVSNKALITPLVGFGRRKNQLNRATRHLVQKADDNMVLFTPYFNLPHSLAKDVIRALKRGVKTTVVVGDKTANDFFIGNDEDFSTIGIIPYVYEMLLKRFVKRYQNFIDQGLLNIHLWKDKDNSFHLKGLRVDDRYHLITGSNLNPRAWALDLENGLVVDDVNKQLLQKTDEELLGILVNTSKVSHFSDIDSVEDYPEKPQKLLKKIRVAQIDRVLKRFLLEHHHHHH | soluble |
| MVQHQMFDPGVADLLDTDILTSPSKRKRKLKIDDISTSDRSELEDYIVLENVYRMFGITFFPLVDPIDLKIKDASGEIFVDREMLGIRLEVFSERTSQFEKPHYVLLKKRIKSNSWFLFKHTIPSFIDVQGIFDDTNGGLVISHDDAYLFAKRVFLQLVEVQKRRQIFKDLEAKKIIHDLDLDLESSMVSFFVKDIKVELFVKQNEIVSCSILDDIHDFSQNNKSKWEIALLGSLDDLELKLNHSFATIFK | not soluble |
| MVREDRSTWKANYFTKLVELFEEYPKCLLVGVDNVGSKQMQEIRQAMRGHAEILMGKNTMIRKALRGHLGKNPSLEKLLPHIVENVGFVFTKEDLGEIRSKLLENRKGAPAKAGAIAPCDVKLPPQNTGMGPEKTSFFQALQIPTKIARGTIEILNDVHLIKEGDKVGASESALLNMLGVTPFSYGLVVRQVYDDGTLYTPEVLDMTTEELRKRFLSGVRNVASVSLAVNYPTLASVAHSLANGLQNMLGVAAVTDVSFKEAETIKAFIADPSKFAAAAPAAAAAPAAAAPAAKKEEPKEESDDDMGFGLFD | not soluble |
| MVRTAPDPAMVQRSHQKPSLVMTTHSMLIPMVDTLLELPARTLTDGTSTPKHQQLREILEELCRTQLKPGDMLPGERALEEQYGVSRITVRRAIGDLVATGQLRRSRGKGTFVAQAPMITRLQLASFSDEMAARKIEASSKILASSWSSPSAVVHEFFGTEQGTPHTHLVRVRLGGGKPFCINDAWYNSAIAPDLLENDVYKSVYSILEQNYGASITGAEQITTAVAATPETARILGVDVGEPLLKVERHAHAGENPIEWCSSLYRTDRFALRTFITK | not soluble |
| MVSEAEFMAALAKFAETSATASAAADRVIAVANVDASRIADEFNALLGWAMKIATLLLEEISKNPSLKAEMAESHQMLFGNLGTIVPALLKFGPYINQILGNFGLSLGKLFGIVLAF | not soluble |
| MVSEEEEEEDGDAEETQDSEDDEEDEMEEDDDDSDYPEEMEDDDDDASYCTESSFRSHSTYSSTPGRRKPRVHRPRSPILEEKDIPPLEFPKSSEDLMVPNEHIMNVIAIYEVLRNFGTVLRLSPFRFEDFCAALVSQEQCTLMAEMHVVLLKAVLREEDTSNTTFGPADLKDSVNSTLYFIDGMTWPEVLRVYCESDKEYHHVLPYQEAEDYPYGPVENKIKVLQFLVDQFLTTNIAREELMSEGVIQYDDHCRVCHKLGDLLCCETCSAVYHLECVKPPLEEVPEDEWQCEVCVAHKVPGVTDCVAEIQKNKPYIRHEPIGYDRSRRKYWFLNRRLIIEEDTENENEKKIWYYSTKVQLAELIDCLDKDYWEAELCKILEEMREEIHRHMDITEDLTNKARGSNKSFLAAANEEILESIRAKKGDIDNVKSPEETEKDKNETENDSKDAEKNREEFEDQSLEKDSDDKTPDDDPEQGKSEEPTEVGDKGNSVSANLGDNTTNATSEETSPSEGRSPVGCLSETPDSSNMAEKKVASELPQDVPVGDFKSEKSNGELSESPGAGKGASGSTRIITRLRNPDSKLSQLKSQQVAAAAHEANKLFKEGKEVLVVNSQGEISRLSTKKEVIMKGNINNYFKLGQEGKYRVYHNQYSTNSFALNKHQHREDHDKRRHLAHKFCLTPAGEFKWNGSVHGSKVLTISTLRLTITQLENNIPSSFLHPNWASHRANWIKAVQMCSKPREFALALAILECAVKPVVMLPIWRESLGHTRLHRMTSIEREEKEKVKKKKKK | soluble |
| MVSTESEIAVRIRGIYSTALTKLLMDRGFKIVQPSDVIAERFGIEKSYEDFDVDIYDKNHGVTIVGTKVEAVKKVFEEEFIDVFFRKLPYKLHGIYKGLVVKRDDRFVYVDIGNVIGTVLIEELPDAAEGDEVVVQVKKHNVLPHLSTLITIPGDYAVLIPKPIGVQRHVKISRKIKDPEERERLRILGLSVDLGEWGVLWRTAAAYKDWNTLRDELVRLSKIADKLKEAEKFSAPAEIIEGREIYEIEFGGGVKKKLDEIRNEVVPTIEGHHQFKSYDPEFTLAVDVAEGILAKLPSQRQKISKGFLEAIITSKGPKVGWIFTLNHVKPDGQIIKIGPGEVIEVSTDPLKVTIKRYLRPGKFYDGLEVPIESGDYAITEIEAGKWWFVHRYYDKDGNLKGEFYNINTPVEIYPDKARYVDLEVDIVRWPDGKKEIIDKEKLKEHYEEGIISEKLYKATLRIAQEVYDRLLEHHHHHH | not soluble |
| MVSVDPLATERWRSIRRLTDRDSAYKVPWFVPGPENFEALQNTKILVIGAGGLGCELLKNLALSGFRTIEVIDMDTIDVSNLNRQFLFRESDVGKSKAEVAAAFVQQRVVGCQVTAHNCRIEDKGQEFYRKFSIIICGLDSIPARRWINGMLCDLVLEMADGKPDENTIIPMIDGGTEGFKGNARVIYPKFTACIDCTLDLYPPQVNFPLCTIAHTPRLPEHCIEYIKVVVWPEEKPFEGVSLDADDPIHVEWVLERASLRAEKYNIRGVDRRLTSGVLKRIIPAVASTNAVIAASCALEALKLATNIAKPIDNYLNFTQIHGAYTSVVSMMKDDNCLTCSGGRLPFEVSPSSTLESLIIRLSERFHLKHPTLATSTRKLYCISSFMPQFEQESKENLHTSMKDLVSDGEEILVSDEALSRALTLRIQLI | not soluble |
| MVTAEIRLYITEGEVEDYRVFLERLEQSGLEWRPATPEDADAVIVLAGLWGTRRDEILGAVDLARKSSKPIITVRPYGLENVPPELEAVSSEVVGWNPHCIRDALEDALDVI | not soluble |
| MVTFKLNDEFMFGTATASTQIEGGDTGNTWYKWCQEGRIKDSSSCITACDHWNRVEEDTELLKNLGVQTHRMSLEWSRIEPSRGKFSDDAMKHYRDEIKLLVENNIKPLVTLHHFSEPIWFHEMGGWKKTGNADIFIEYVKYVVENLGDLVSDWVTFNEPNVYVDFGYVIGIFPPGERSLSEGLKVTAELINTHVKLYRLIHRIRRERKFAGRTMVGTAMHLRIFDGISSTGKMIAKVVDYLFNEMFMEGMTTGHMMFPLSKKGSSHKKGRYADFLGINYYTRNIVEFVFDPSLYFHELVCDKDLTKSDLGWDIYPEGIYKVCKRYYKKYKLPIYITENGISDKNDTKRPSFIASHLAYIAKAIKEGIPIERYYYWTLMDNFEWLEGESTDFGLYDCNFRTQERIPRKSVRLYEQICRRKELTAEMIEDFKKYSGITIETIR | soluble |
| MVTFNCEVCNDTVPKKNTEKHYYRCPNAYYTCIDCSKTFEDGVSYKNHTSCISEDEKYQKALYKGNKKQKQKQQQKQQQKQHQHQPVATPAKKVEKPVIKKAEKVEKTSNGIELHKGKSLYKILKTMKDKGAKKTFLKSLVVDSEGQIRYAKE | soluble |
| MVTILDRTSSDEKRIRHPEKAHRPDTEVMRKPEWIRVKAPTSKGYHETRELVRSHKLVTVCEEAGCPNIGECWEKKHATFMIMGEICTRACAFCNVATGKPNALDMDEPENVAKAVKQMGLSHVVITSVDRDDLADGGAEHFEKVIWAIRAASPTTTIEILTPDFLKKPGALERVVAAKPDVFNHNMETVPGNYLTVRPGARYFHSVRLLQRVKELDPTMFTKSGIMVGLGEERNEVLQLMDDLRSADVDFLTIGQYLQPTRKHHKVEAFVTPEEFKSYETVAYAKGFLMVSSSPLTRSSHHAGDDFERLRAAREKKLLAAAE | not soluble |
| MVTKTEEIQLNQLENQVENGGGGVWEYLCLVRKLKVRRSEIVLKHGLSILNDSGKRSALGPDEWTLYEQVAIAAMDCQSLGVAQNCIKVLKKKFPESKRVGKLEALLLEAKGMWEEAEKAYTSLLEDNPLDQVIHKRKVAMAKAQGKSSLAIEHLNKYLEVFMADHDAWRELAEIYVSLQMYKQAAFCYEELILTQPTLPLYHLAYADVLYTIGGLENLIAARKYYAATIDLTGGKSTRALLGICLCGSAIAQISKGRNKEDKDMAAPELQSLAATALEREYKQKAPAKLNLLTSALRNLKIA | not soluble |
| MVTLEELKAVFKPKLKPIIWREDSLDLLDQSALPFQTTYITVKTPEEVAKAIKLMQVRGAPAIGITAGYGMVLALISTKPNTLNEAIEELVKAKQIMDQARPTAVNLSWATSRMLNFAKKKIEEGEAKSVSELIQLMKEEANRIYEEELEAELKIGMYGLEKISDGDTILTQCNAGGLATGTGLGTALAPVKLAHYLGMKVSVIAPETRPWLQGSRLTVYELMAEGIQVTLITDTAVGLVIYKNMVNSVMVGADRILKDGHVFNKIGTFKEAVISHELGIPFYALAPSSSFDLKSKVDEIKIEERDPNEVRTIRGIPIVPENVKVYNPVFDVTPPKYITALITEKGVIYPPFEKNIPKIIGL | soluble |
| MVTNRVVFLTGAASGIGYEMGNTFAKEGAKVVITDRLEERAKEAAEQLQKEGFQAIGLKCDVTSEEEIEASISQTVNHFGSLDILINNAGMQHVSPIEDFPTEKFELLIKIMQIAPFIAIKHAFPIMKKQKYGRIINVASINGLVGFAGKAAYNSAKHGVIGLTKVAALEGATHGITVNALCPGYVDTPLVRNQLQDLATTRNVPLENVLEDVIYPLVPQKRLLQVQEIADYAMFLASEKAKGITGQAVVIDGGYTAQ | not soluble |
| MVTQNKKILIITGSFGNGHMQVTQSIVNQLNEMNLNHLSVIQHDLFMEAHPIMTSICKKWYINSFKYFRNTYKRFYYSRPNELDKCFYKYYGLNKLINLLIKEKPDLILLTFPTPVMSVLTEQFNINIPIATVMTDYRMHKNWITPYSQRYYVATKDTKDDFIEAGVPASYIKVTGIPIADKFELEHHHHHH | not soluble |
| MVTRITGLASGMDIDDIVSKLMQTERAPLDKLTQKKQTLEWQRDSYREVNSKIKELQDYMSKNTLTYPSTYQSKTVTSSNESVLTATGSVSAPNSSSTVEVASLATAATYKANNYTGYTQGDYNLAFNVVAPGETTAKTVNISVTSADTIDNVISKLNSSDLGVSAFKDKIWNGTEYVETIAFSSKATGAGGSIQAADSATADFMSGQLGFSLDADNKLTAYKEGTNAKVTINGFEMEKLTNNFTVNGVTYSIKNTTAATGPVTTSVSTDVDGIYNQIKEFVDKYNELVDSLNEKLKEEKYRDYTPLTSEQKEAMSDKEVELWEEKAKSGLLRNDSSISTGTNQMRTDFYTQVNADGKTYQLTEFGITTSSAYQLRGHLEINEEKLKAKIAEDPQGVANLFTSGTNDSNYSDKGIMKRITNTLRSTVKSIEAKAGNSTMGASSYSIGKNLNSISTEITDMQDRLNTIENRYYSKFSAMDSAIQKMNEQASYLSQLLVQ | not soluble |
| MVTSEQLLFLEAWRAVDRAYVDKSFNGQSWFKLRETYLKKEPMDRRAQTYDAIRKLLAVLDDPFTRFLEPSRLAALRRGTAGSVTGVGLEITYDGGSGKDVVVLTPAPGGPAEKAGARAGDVIVTVDGTAVKGLSLYDVSDLLQGEADSQVEVVLHAPGAPSNTRTLQLTRQKVTINPVTFTTCSNVAAAALPPGAAKQQLGYVRLATFNSNTTAAAQQAFTELSKQGVAGLVLDIRNNGGGLFPAGVNVARMLVDRGDLVLIADSQGIRDIYSADGNSIDSATPLVVLVNRGTASASEVLAGALKDSKRGLIAGERTFGKGLIQTVVDLSDGSGVAVTVARYQTPAGVDINKIGVSPDVQLDPEVLPTDLEGVCRVLGSDAAPRLFG | soluble |
